Reference: publication PMC6450059

Experiments:
[1] = biological target: PmScsCΔLinker (Proteus mirabilis); assay: crystal structure; PmScsCΔLinker 40 mg ml^-1 in 10 mM HEPES pH 7.4, 150 mM NaCl; 0.1 M HEPES pH 7, 32%(v/v) Jeffamine M-600; 293 K; space group H32, one protomer in the asymmetric unit, trimer through crystallographic symmetry
[2] = biological target: PmScsCΔLinker (Proteus mirabilis); assay: SAXS; PmScsCΔLinker, concentration series 0.1-10.0 mg ml^-1 in 10 mM HEPES pH 7.4, 150 mM NaCl, 283 K; linear combination of monomer, dimer and trimer scattering curves, global (common K d and K t) and independent optimization; K d: monomers and dimer; K t: monomer, dimer and trimer
[3] = biological target: Suppressor of copper sensitivity protein C from Proteus mirabilis (PmScsC) (Proteus mirabilis); assay: SAXS; native PmScsC, concentration series 0.1-10.0 mg ml^-1 in 10 mM HEPES pH 7.4, 150 mM NaCl, 283 K; linear combination of monomer and trimer scattering curves, global (common K t) and independent optimization; K t: monomers and trimer

PmScsCΔLinker (enzyme)
stoichiometry N [1]: 3
K t (equilibrium constant for trimer formation, from monomer and dimer) [2]: 730 µM
Kd [2]: 210 µM
dimer fraction at 0.1 mg/ml (global optimization) [2]: 0.03
dimer fraction at 0.1 mg/ml (independent optimization) [2]: 0
dimer fraction at 0.5 mg/ml (global optimization) [2]: 0.12
dimer fraction at 0.5 mg/ml (independent optimization) [2]: 0
dimer fraction at 2.0 mg/ml (global optimization) [2]: 0.27
dimer fraction at 2.0 mg/ml (independent optimization) [2]: 0.33
dimer fraction at 5.0 mg/ml (global optimization) [2]: 0.41
dimer fraction at 5.0 mg/ml (independent optimization) [2]: 0.37
dimer fraction at 10.0 mg/ml (global optimization) [2]: 0.48
dimer fraction at 10.0 mg/ml (independent optimization) [2]: 0.49
monomer fraction at 0.1 mg/ml (global optimization) [2]: 0.97
monomer fraction at 0.1 mg/ml (independent optimization) [2]: 1
monomer fraction at 0.5 mg/ml (global optimization) [2]: 0.88
monomer fraction at 0.5 mg/ml (independent optimization) [2]: 0.94
monomer fraction at 2.0 mg/ml (global optimization) [2]: 0.71
monomer fraction at 2.0 mg/ml (independent optimization) [2]: 0.67
monomer fraction at 5.0 mg/ml (global optimization) [2]: 0.53
monomer fraction at 5.0 mg/ml (independent optimization) [2]: 0.55
monomer fraction at 10.0 mg/ml (global optimization) [2]: 0.4
monomer fraction at 10.0 mg/ml (independent optimization) [2]: 0.37
trimer fraction at 0.1 mg/ml (global optimization) [2]: 0
trimer fraction at 0.1 mg/ml (independent optimization) [2]: 0
trimer fraction at 0.5 mg/ml (global optimization) [2]: 0
trimer fraction at 0.5 mg/ml (independent optimization) [2]: 0.06
trimer fraction at 2.0 mg/ml (global optimization) [2]: 0.02
trimer fraction at 2.0 mg/ml (independent optimization) [2]: 0
trimer fraction at 5.0 mg/ml (global optimization) [2]: 0.07
trimer fraction at 5.0 mg/ml (independent optimization) [2]: 0.08
trimer fraction at 10.0 mg/ml (global optimization) [2]: 0.12
trimer fraction at 10.0 mg/ml (independent optimization) [2]: 0.1

Suppressor of copper sensitivity protein C from Proteus mirabilis (PmScsC) (enzyme)
K t (equilibrium constant for trimer formation, monomers and trimer) [3]: 6.3e-18 M^2
monomer fraction at 0.1 mg/ml (global optimization) [3]: 0.01
monomer fraction at 0.1 mg/ml (independent optimization) [3]: 0.21
monomer fraction at 0.5 mg/ml (global optimization) [3]: 0
monomer fraction at 0.5 mg/ml (independent optimization) [3]: 0.04
monomer fraction at 2.0 mg/ml (global optimization) [3]: 0
monomer fraction at 2.0 mg/ml (independent optimization) [3]: 0
monomer fraction at 5.0 mg/ml (global optimization) [3]: 0
monomer fraction at 5.0 mg/ml (independent optimization) [3]: 0
monomer fraction at 10.0 mg/ml (global optimization) [3]: 0
monomer fraction at 10.0 mg/ml (independent optimization) [3]: 0
stoichiometry N [3]: 3
trimer fraction at 0.1 mg/ml (global optimization) [3]: 0.99
trimer fraction at 0.1 mg/ml (independent optimization) [3]: 0.79
trimer fraction at 0.5 mg/ml (global optimization) [3]: 1
trimer fraction at 0.5 mg/ml (independent optimization) [3]: 0.96
trimer fraction at 2.0 mg/ml (global optimization) [3]: 1
trimer fraction at 2.0 mg/ml (independent optimization) [3]: 1
trimer fraction at 5.0 mg/ml (global optimization) [3]: 1
trimer fraction at 5.0 mg/ml (independent optimization) [3]: 1
trimer fraction at 10.0 mg/ml (global optimization) [3]: 1
trimer fraction at 10.0 mg/ml (independent optimization) [3]: 1
